This data set can be described thus: soluble on expression in E. coli; label from the status in PepcDB or PDB records.
With “MKRVLVLGATGRTGNFVIKELSKYKSIQLIAGLRSQKDKERLPKINAAIETVVIDIADVCSLRKALTDSDIVVQAIRLRGDISENALIQLDQRIHQAFNPSRKTHLVTVGGAGALKLEANQRFWENEYFPRQTLPRGIAHARLRDYLEKSFFNHTWTYLIPPPVYVAEGARTGSYNRYSSAQKEDFFLSKSISYADFALAIGNAVMEEWQGVYLIAEKELEHHHHHH”, the “soluble on expression in E. coli” value is “not soluble”.

Consider “MKRVMFHAKIHRATVTQADLHYVGSVTVDQDLLDAAGILPFEQVDIYDITNGARLTTYALPGERGSGVIGINGAAAHLVKPGDLVILVAYGVFDEEEARNLKPTVVLVDERNRILEVRKG”, for which the “soluble on expression in E. coli” value is on record as “soluble”.

“MKSFALVRADDSDKVKIALHDLERYGHIQFSATPKCIEPNYADELLVSVMGVSLKSKCNSAALVELNNHAGAAISRLKKIHPPAHIIIISPRHKMFEELAGKFPKYPEFDRTFNHQKSPQGLDMIQEKGESSNA”: the “soluble on expression in E. coli” value is recorded as “not soluble”.

“MKSIYITGYMGAGKTTIGKALSKELHMDVVDTDQKIEEKQGKVIRDIFAEEGEMAFREYESEMLCSLPVDNVIITTGGGIVEREENRKWMKENGTVVYLYCDPHVIAERLREDTTRPLFQKKDIDAFVTKFESRRAYYEEAHIHIDTTNKSVKQIMNELKEKINE”: the “soluble on expression in E. coli” value is on record as “not soluble”.

As to “MKSNHYMSIMEEFYMDKNLLEITGYDGEGYVPLIDYSHWRVAELRYCEELEVDKLKDMQKHDETDEVFVLLEGDFTLFLGGNGEHIGEIEAIKLEPLKLYNVKRGTYHTHTPEKNSTVLIVENVDTTDDNSPKEKLTLEQKKIIEKLYKEVNS”, the “soluble on expression in E. coli” value was “not soluble”.

On to “MKSQFLLSVKEHMLTRYYANKTIESYLFWIKRFIVFHQFAHPSKLSEDDVIRFLSHLAIDEKVAVKTQALALNAISFLYRDFFKTPLSLDMRFQKSLTEKKLPVVLTRDEVRRFV”, for which the “soluble on expression in E. coli” value was “not soluble”.

With “MKSRIPVVLLACGSFNPITNMHLRMFEVARDHLHQTGMYQVIQGIISPVNDTYGKKDLAASHHRVAMARLALQTSDWIRVDPWESEQAQWMETVKVLRHHHSKLLRSPPQMEGPDHGKALFSTPAAVPELKLLCGADVLKTFQTPNLWKDAHIQEIVEKFGLVCVGRVSHDPKGYIAESPILRMHQHNIHLAKEPVQNEISATYIRRALGQGQSVKYLIPDAVITYIKDHGLYTKGSTWKGKSTQSTEGKTS”, the “soluble on expression in E. coli” value is on record as “soluble”.

As for “MKSSEEQALAGIELDDDAVMQYLLQNPDFFIRNARLVEQMHIPHPVRGTVSLVEWQLGRQRNQIGQLEEEITLLMEQAGLNEVLFNRLLQLQGNLAAASSLQDMLNRLQRWARDFGLAGANVRLFTDRWQIGAPSDFTHLGLSRHAFEPMRIQRLGNARHYLGSLNGPELLLLLPQAKQVGSVALSLLGKEGDLGVIVFSSRDIQHYQQGMGTVMLNQLSMLLPSLLERWIEPVLEHHHHHH”, the “soluble on expression in E. coli” value is recorded as “not soluble”.

For “MKSSVEKLSETRVKLNVEVPFEELKPEIDQAYKALAQQITIPGFRRGKAPRQLIDARIGRGAVLEQVINDMLPTRYQQVVEENELVVLGQPHIDITKLEDNEVVEFTAEVDVRPEITVPDFSAFAVEVPALKSNDEAIDAQIDKLRERFGELKDTKRKLKTDDFAIIDIEAAIDGEKLEEATTEGMSYQVGAGDLIDGLDTALRGLKAGESAEFTTTLKAGEHEGKEAAVTVTVQQTKERKLPELDEEFVQTASEFDTVEELRESIAEQVAEQAKAEQATAIRDEVLKAALAEATFELPEGVVEDQIHAQLHQLLNQVGGDEAALNAALEAQGTSREQFDADNRKNSEEAVRTQLFLDALAEQEQPEVSQQELTDHILFTAQSYGMDPNQFITQLQQSGQIGNLFSDVRRGKALAAAICRVSVKDDEGKAVDPSEYFGEEEESAEESE”, the “soluble on expression in E. coli” value is “soluble”.

Take “MKSTEVKGSVSDATDFLVPLPPKSVNEKILNPAILTLFIPQIKAVSSIRERIYLLRIKWVISWDTPLTVYSVKLDDNRYIARYYASQKIPLFVVSFGFDFYIMSEGTGSRIKMKEWYKGPFKQLAKGEIEKHLKKAKEVLPEFLIKILEHHHHHH”: the “soluble on expression in E. coli” value was “soluble”.

Regarding “MKSVLITFDQAYYERIMALLDRLNCRGFTYLEKVQGRGSKTGDPHFGSHAWPSMCSAILTVVDDNKVDPLLDTLHKMDLQTEQLGLRAFVWNIERTI”, the “soluble on expression in E. coli” value was “not soluble”.

On to “MKTAAYMIHCLTNMHVGKGDATYEVVDKCVQRDVTTGMPCIYSSSLKGALRQFFSKQGFAELNYVFGKDQSRDKKNNGNEKNEEEHSVGNFTFFQANLLAYPVQTTQEGATYILKTNKTLQDPIKELANLFSAPSNIEEMLPKETEKDLSNETLEQLPVIARNQLDNGKSENLWYEEVVPAESRFVFFVSYDDEEIFTKFDKIIQEKVIQIGANGSIGYGFCKIANVTNPFKK”, for which the “soluble on expression in E. coli” value is “soluble”.

“MKTEKDKMLAGEMYIADDEELVADRVEAKRLTRLYNEAVETGDERRFTLLNQLLGSSADGKAQINPDFRCDYGYNIHVGKSFFANFNCVILDVCEVRIGDHCMFAPGVHIYTATHPLHPVERNSGKEYGKPVKIGNNVWVGGGAIINPGVSIGDNAVIASGAVVTKDVPNNVVVGGNPAKVIKTIEE”: the “soluble on expression in E. coli” value is “not soluble”.

For “MKTFKAVRFQIVNEHGRIIEYELEDGVIINKEESGTGWLLEIVISNEHYETFKEYQDNEQLLDIRVVITRPANDPALFESTVKSIKNFKTTMSIVFECHIYTLRQQYAESLLEQLIDDGLSGEELKKSFNRMMQSKPKLKDEKLEELEHHHHHH”, the “soluble on expression in E. coli” value is “soluble”.

Turning to “MKTIGLLGGMSWESTIPYYRLINEGIKQQLGGLHSASLLLHSVDFHDIEVCQRRDEWDKAGDILAQAAHGLQQAGAEGIVLCTNTMHKIAHVIESRCSLPFLHIADATGRAIARQGLHRVALLGTRYTMEQDFYRGRLEQQFAIETIVPEADDRARINQVIFDELCQGTFTDASRHYYLQVIEQLAAQGAQGVIFGCTEIGLLVPQTQSALPVFDTTAIHAADAVSFMLSSSAPE”, the “soluble on expression in E. coli” value is “soluble”.

For the sequence “MKTLIARHKAGEHIGICSVCSAHPLVIEAALAFDRNSTRKVLIEATSNQVNQFGGYTGMTPADFREFVFAIADKVGFARERIILGGDHLGPNCWQQENVDAAMEKSVELVKAYVRAGFSKIHLDASMSCAGDPIPLAPETVAERAAVLCFAAESVATDCQREQLSYVIGTEVPVPGGEASAIQSVHITHVEDAANTLRTHQKAFIARGLTEALTRVIAIVVQPGVEFDHSNIIHYQPQEAQALAQWIENTRMVYEAHSTDYQTRTAYWELVRDHFAILKVGPALTFALREAIFALAQIEQELIAPENRSGCLAVIEEVMLDEPQYWKKYYRTGFNDSLLDIRYSLSDRIRYYWPHSRIKNSVETMMVNLQGVDIPLGMISQYLPKQFERIQSGELSAIPHQLIMDKIYDVLRAYRYGCAE”, the “soluble on expression in E. coli” value was “soluble”.

Turning to “MKTNEVLENIKARRSVRAYTDRQVSEEDLQAILEAATFAPSGMHLETWHFTAIQNADKLAELNERIKGAFAKSDEPKLQERGHSKAYCCYYHAPTLVIVSNEPTQWWAGMDCACAIENMFLAAHSLGIGSCWINQLGTTCDDPEVREFISSLGVPENHKVYGCVALGYADPKISLREKMVKAGTVTVVR”, the “soluble on expression in E. coli” value is given as “not soluble”.

In the case of “MKTRKIPLRKSVVSNEVIDKRDLLRIVKNKEGQVFIDPTGKANGRGAYIKLDNAEALEAKKKKVFNRSFSMEVEESFYDELIAYVDHKVKRRELGLE”, the “soluble on expression in E. coli” value was “soluble”.

In the case of “MKTTLIISTYNRPEALSVCLDSVRFQTVMPDEVIVGDDGSTSETKDLIESFKKDFPVPLIHLWQEDKGFRLAMMRNKSVAAATGDYIIEIDGDIFLHNKFVEDHKRLAKPGHYLRGTRVNLGQKLTEEICKSKVNRRIYPWTIGIQNRAETAIHSTPVSNFFADRYKKNVSSGLGCNMSFWRSDFLAINGYDEFFEGWGKEDDDLTHRLQRKGCKKRSLRFAGIVYHLWHGHESMESDQKNAEYFRKNNEKNIVYCENGVSKYLKQELEHHHHHH”, the “soluble on expression in E. coli” value is on record as “soluble”.

On to “MKTVILIGALGKMGQAALTGLSKHKVITAGRSGNVDHLVDITNENSIRALYEKVGHFDAVVNTVGFCEYATFAEMTEAQWMTTVMSKMMGQINLVRIGQEYIADKGSFTLISGILNVKPIPCAIADATTSGAIDTFVKCVAYEMQRGTRINVVNPTVLTEAWDVYGDMMPGFEPVPSTLVGKAFERSVDGFINGEVLFVDALEHHHHHH”, for which the “soluble on expression in E. coli” value is on record as “soluble”.

With “MKVAFVIRKDCKRCATIAKSIIELIPPDWEKIYDTEAAKFLGGVGKDITEISADIIIAIGGDGTVLRILQNAKGPVLGINMGGLGFLTEIEIDEVGSSTYKLIRGEYKINEAMKLKVYINGRRLEDCTNEAVVHTDRIARIRQFKIYVDGHFLTTIKSDGVIVATPTGSSSYSSSAGGPLLLPTVRGMVISYLAPYSSRIKPVVVPSESTVEIKIAGNDQDSLLILDGQKEYKIKSGDTVSISMSEEKARFVSFRESIYDRLRDKVIKHVVN”, the “soluble on expression in E. coli” value is given as “soluble”.

Regarding “MKVAVLGAAGGIGQALALLLKTQLPSGSELSLYDIAPVTPGVAVDLSHIPTAVKIKGFSGEDATPALEGADVVLISAGVARKPGMDRSDLFNVNAGIVKNLVQQVAKTCPKACIGIITNPVNTTVAIAAEVLKKAGVYDKNKLFGVTTLDIICSNTFVAELKGKQPGEVEVPVIGGHSGVTILPLLSQVPGVSFTEQEVADLTKRIQNAGTEVVEAKAGGGSATLSMGQAAARFGLSLVRALQGEQGVVECAYVEGDGQYARFFSQPLLLGKNGVEERKSIGTLSAFEQNALEGMLDTLKKDIALGQEFVNK”, the “soluble on expression in E. coli” value is recorded as “soluble”.

Take “MKVEQIYTGCLAQGAYYITSMGEAAIIDPLREITPYLERLKRDGVKLKYILETHFHADFVSGHLDLSRATGAPIVYGPTAKPGFDAIVAEDNQIFELGNVKIRVLHTPGHTMESSCFLLIDENGREAALFSGDTLFLGDVGRPDLAQKAANLTQEELAGLLYDSLYTKILPLSDDIIVYPAHGAGSACGKNMMQETVDSLGNQKRVNYALNQPGKEAFIASVIEGLLPPPAYFGGNVAMNKMGYDSIDNVMERGLSALSATDFEAIAKTSDALVLDTRAPGVFAQGFIPRSINIGLDGDFAPWVGTMIVDVKQPLLLVADPGREQEVITRLSRVGFDQVLGYLDGGFDTWNASGKEIDHVECITANEFAERFCPEESLVFDVRKESEYAAEHVEGAYSRPLAYINDWIQDIPRDRHFYLHCIGGYRSMIASSILLSRGYRNFTDIEGGFASIAQTGVPKTDYVCQSKVSKKLEHHHHHH”: the “soluble on expression in E. coli” value is given as “soluble”.

With “MKVGNQMNEEQLSKRLEKVASYITKNERIADIGSDHAYLPCFAVKNQTASFAIAGEVVDGPFQSAQKQVRSSGLTEQIDVRKGNGLAVIEKKDAIDTIVIAGMGGTLIRTILEEGAAKLAGVTKLILQPNIAAWQLREWSEQNNWLITSEAILREDNKVYEIMVLAPSEKPVTWTKQEIFFGPCLLKEQSAIFKSKWRHEANTWQNIIQTISNNQPVSTENQAKIRELEHKIALVEDVLK”, the “soluble on expression in E. coli” value is on record as “not soluble”.

Turning to “MKVGQDKVVTIRYTLQVEGEVLDQGELSYLHGHRNLIPGLEEALEGREEGEAFQAHVPAEKAYGPHDPEGVQVVPLSAFPEDAEVVPGAQFYAQDMEGNPMPLTVVAVEGEEVTVDFNHPLAGKDLDFQVEVVKVREATPEELLHGHAHPSGHHHHHH”, the “soluble on expression in E. coli” value is “soluble”.

The values are drawn from the DeepSol protein solubility set.
